Measurements taken from paper PMC6196502 (Proceedings of the National Academy of Sciences of the …, 2018).

What was measured:
[1] = target: the molecule itself; experiment: solid-state NMR
[2] = target: the molecule itself; experiment: urea-driven polymer dissolution

Protein	binding result [1]	binding result [2]
segmentally labeled mCherry-hnRNPA2-LC D290V (ligated construct, G280C) (domain or fragment, human, UniProt P22626-2 181-341, looked up) MQEVQSSRSGRGGNFGFGDSRGGGGNFGPGPGSNFRGGSDGYGSGRGFGDGYNGYGGGPGGGNFGGSPGYGGGRGGYGGGGPGYGNQGGGYGGGYDNYGCGNYGSGNYNVFGNYNQQPSNYGPMKSGNFGGSRNMGGPYGGGNYGPGGSGGSGGYGGRSRY	binds	–
GFP-hnRNPA2-LC D290V (domain or fragment, human, UniProt P22626-2 181-341, looked up) MQEVQSSRSGRGGNFGFGDSRGGGGNFGPGPGSNFRGGSDGYGSGRGFGDGYNGYGGGPGGGNFGGSPGYGGGRGGYGGGGPGYGNQGGGYGGGYDNYGGGNYGSGNYNVFGNYNQQPSNYGPMKSGNFGGSRNMGGPYGGGNYGPGGSGGSGGYGGRSRY	–	binds
